Values joined by “and” are separate entries in the source; they are usually repeats but may differ in a detail not shown here. Equal entries are not always repeated.
Legend:
Format in all cases: cell-based, human
occludin = test: Western blot of occludin in siRNA transfected PHK; settings: 48 h
Method: PHK were lysed on ice in RIPA lysis buffer (20 mM Tris, 50 mM NaCl, 2 mM EDTA, 2 mM EGTA, 1% sodium deoxycholate, 1% TX-100, and 2% SDS, pH 7.4), with 1:100 Protease Inhibitor Cocktail (Sigma), 1:100 Phosphatase Inhibitor Cocktail ([…] for 30 min at 4° C. The samples were heated at 95° C. for 10 min and then centrifuged at 14,000 rpm for 15 min. Forty μg of protein, determined by BCA (Pierce) in NuPage LDS Sample Buffer (Invitrogen) was applied to 4-12% NuPage Bis-Tris gels (Invitrogen). Electrophoresis was performed under reducing conditions with MES SDS Buffer (Invitrogen). Membranes were incubated in blotting solution (5% non-fat dry milk in PBS+0.05% Tween 20) at RT for 1 h and then incubated with primary antibodies; claudin-1 (JAY.8; Zymed), occludin (OC/3F10; Zymed) and GAPDH (FL-355; Santa Cruz). An HRP-linked secondary antibody (GE Healthcare) was used with ECL (GE Healthcare) to visualize bands by autoradiography with Kodak BioMax MR film. The pixel intensity of each band was estimated with Image J.
PHK were plated on glass coverslips at 2-3×10^5 cells/well in a 6-well plate or at 2-3×10^4 cells/filter in Transwell insert (Costar; PET membrane, 0.4 μm pore size, 6.5 mm insert) in Keratinocyte-SFM without antibiotics. […]

HSV-1 strain F [1] = test: HSV-1 fluorescent-focus assay in siRNA transfected PHK; settings: siRNA 100 nM
Method: (§1) Infection studies were performed using the highly virulent HSV-1 strain F (provided by Dr. D.C. Johnson). Twenty-four to 48 h post-transfection with 100 nM claudin-1 or control siRNA, the cells were differentiated in DMEM with 10% heat-inactivated FBS for 24 h. Cells were washed twice with HBSS and infected with HSV-1 strain F at a multiplicity of infection (MOI) of 0.1 in DMEM containing 1% heat-inactivated FBS at 37° C., with rocking every 15 min. After 2 h, the viral inoculum was removed, and the cells were washed 2× with HBSS and incubated in DMEM containing 5% HI-FBS and 0.4% human-γ-globulin (Sigma; final concentration 0.5 mg/ml) for 24 hr to neutralize any extracellular virus.
HSV-infected PHK were washed 2× with PBS and fixed in 4% formaldehyde/PBS for 20 min at room temperature. A polyclonal rabbit anti-HSV-1 (Dako) antibody diluted 1:500 in PBS/1% BSA was placed on the PHK for 1 h at 37° C. followed by Alexa Fluor 488 donkey-anti-rabbit IgG H+L (1:1000, Molecular Probes) and 4′,6-diamidino-2-phenyl-indole, dihydrochloride (DAPI) (1:10,000, Molecular Probes). Coverslips were mounted onto slides with SlowFade (Molecular Probes). […] Images were stored in Portable Network Graphics (PNG) format and analyzed computationally to objectively quantify differences in focal forming units (FFU). […] Cell density was calculated by counting the number of DAPI labeled nuclei, assigned to the blue channel. Images were analyzed using MATLAB to enumerate FFU, and total cell number. […]
The MOI was chosen based on findings from viral titration (0.01 to 10 MOI) studies on differentiated and undifferentiated PHK, respectively, used as negative and positive controls. […] For each sample, six random fields were captured at identical acquisition settings and analyzed computationally to objectively quantify differences in focal forming units (FFU). […] An average of 4.8±0.7 FFU/field were counted in CLDN1 knockdown PHK, while only 2.5±0.5 FFU/field were detected in the control cells (P=0.05; n=6; FIG. 15C). Adapted Fluorospot software was used to semi-quantify differences in dimensions of each FFU. […]

HSV-1 strain F [2] = test: Infectious center assay (HSV-1 infected PHK on Vero cells); settings: siRNA 100 nM, 24 h post-infection, n=3
Method: as §1
Twenty-four hours post-infection, PHK were treated with 0.05% Trypsin—EDTA (Invitrogen/Gibco) for 5 min at 37° C. followed by gently scraping to lift the cells, washed 3 times in DMEM containing 1% HI-FBS, and vortexed for 30 sec to disrupt cell clumps. Alive cells were counted using Trypan blue exclusion and scalar PHK dilutions (1000 to 1 cells in 1 ml of media) were plated onto pre-grown monolayers of Vero cells in six well plates. After 2 h, 1 ml of DMEM containing 5% HI-FBS and 0.4% human-γ-globulin (Sigma; final concentration 0.5 mg/ml) was added to each well. […] Plaques were counted by 2 independent investigators and results expressed as percent of infected PHK.

B1: CLDN1 siRNA: claudin-1 siRNA (h), Santa Cruz; a pool of 3 separate strands, SEQ ID NO: 10-15 (nucleic acid)
chain 1: UACAUAGGCAUAGUUCAUGNN
chain 2: CAUGAACUAUGCCUAUGUANN
chain 3: AACGUAUGCAGUUAAUUCCNN
chain 4: GGAAUUAACUGCAUACGUUNN
chain 5: UGAAGAUCUAUGUAUGUGGNN
chain 6: CCACAUACAUAGAUCUUCANN
modifications: chemistry not given here
occludin
  occludin protein by Western blot: No change
HSV-1 strain F [1]; HSV-1 MOI 0.1, 24 h, n=6
  HSV-1 focal forming units: 4.8±0.7 FFU/field
HSV-1 strain F [1]; HSV-1 MOI 0.1, n=6
  FFU area: 15649±4367 pixels
  diameter of the major axis of FFU: 207±22 μm and 207±21 μm
HSV-1 strain F [2]
  PHK infected with HSV-1: 38±6% and 38±6.43%
